How the values were obtained:
HUVECs [1] = experiment: Scratch (wound healing) assay, endothelial cell migration; type: cell-based, human
Experimental: Confluent HUVEC monolayers were grown in 6-well plates. Cells were starved 18 hours in EBM-2 medium with 1% FBS. A horizontal wound was created using a sterile 200 μl pipette tip. Next, the cells were washed with EBM2 at 37° C. and incubated in EBM-2 supplemented with VEGF-A (25 ng/ml) or DAND5 (60 ng/ml) at 37° C. for 16 hours. Pictures of scratch wounds were taken just before stimulation (time 0) and after 16 h. Migration % was calculated using ImageJ™ software.
To evaluate the cellular mechanisms underlying the inhibitory effects of DAND5 on endothelial cells sprouting, we assessed the effects of DAND5 on endothelial cell migration and proliferation. Endothelial cell migration plays an essential role in neovascularization, as endothelial tip cells will need to migrate in response to VEGF, and constitutes one of the first steps of the angiogenic response. To address the effects of DAND5 on EC migration, HUVECs were subjected to a wound healing assay. Briefly, a scratch was performed on a confluent monolayer of HUVECs, and wound closure was evaluated at the time of the scratch and again after […].

HUVECs [2] = experiment: Apoptosis of cultured endothelial cells (cleaved caspase 3); type: cell-based, human; settings: HUVECs cultured for 18 hours
mouse choroidal explants = experiment: Choroidal explant sprouting in culture; type: cell-based; settings: P5 mouse choroidal explants exposed to serum and VEGF
Experimental: FIG. 1 is a panel with pictures, bar graphs, and graphs showing that Dand5 reduces VEGF-mediated sprouting angiogenesis in cultured endothelial cells. FIG. 1A: HUVECs grown in a fibrinogen gel were treated with VEGF to induce tube formation in the presence or absence of Dand5. […] FIG. 1B: HUVECs were plated to confluency and scratched to stimulate a wound in the presence or absence of Dand5. Scale bar, 100 μm. FIG. 1C: Quantification of tube formation in FIG. 1A n=3, *p<0.05, **p<0.01). FIG. 1E: Choroids were isolated from wild-type mice and cultured in vitro in the absence or presence of Dand5. […] FIG. 1F: Quantification of sprouting areas in choroidal sprouts (n=3, ***p<0.0001). […] FIG. 1H: HUVECs were cultured in the presence or absence of Dand5 and analyzed by immunofluorescence using antibodies against phospho-Histone 3 (PH3), a marker of cellular mitosis, and phalloidin and DAPI (nuclei). […] FIG. 1I: Quantification immunofluorescent staining of phospho-histone 3 positive cells. […] FIG. 1K: Quantification of immunofluorescent staining of cleaved caspase 3 (n=2, n.s.).
To evaluate the cellular mechanisms underlying the inhibitory effects of DAND5 on endothelial cells sprouting, we assessed the effects of DAND5 on endothelial cell migration and proliferation. […]
We exposed or not HUVECs to recombinant DAND5 and measured the concentration of free radicals using DCFDA and MitoSoxRed™. […]

Wnt-induced angiogenesis = experiment: Wnt1 and DAND5 co-injection during retinal vascular development (P1 to P5); type: in vivo, mouse; settings: quantification of vascular branches in treated eyes
Experimental: FIG. 13 is a panel with pictures and graphs showing that Dand5 opposes Wnt1-mediated hypervascularization during retinal vascular development. FIG. 13A: Schematic representation of experimental design. C57B6 pups were injected at P1 with PBS, Dand5 (60 ng/mL), Wnt1, or Wnt1 and Dand5 together at various molar ratios (1N, 5N and 10N). FIG. 13B: Representative images of retinas treated with PBS, Dand5 (1N) or Wnt1 (1N). FIG. 13C: Representative images of retinas treated with PBS or with Wnt1 (5N and 10N) alone or in combination with Danb5. Dand5 Flatmounts retinas were stained with Isolectin B4 to visualize the vasculature. FIG. 13D: Quantification of vascular branches in treated eyes. […] To address the antagonism of DAND5 on Wnt-induced angiogenesis, retinas were injected with recombinant DAND5 (60 ng) with increasing concentrations of Wnt1 (0, 1, 5 or 10× molar ratio) at P1 and retinas were harvested at P5 (FIG. 13A).

HUVECs [3] = experiment: VEGF-induced tube formation (sprouting assay) of HUVECs in 3D fibrin gels; type: cell-based, human; settings: for VEGF-induced tube formation: HUVECs in fibrin gel, 25 ng/ml VEGF, DAND5 0, 15, 30 or 60 ng/ml
Experimental: Sprouting assays were performed as previously described (2). Briefly, HUVECs (250,000 cells/well in 6-well plates) were resuspended in 300 μl fibrinogen solution (2.5 mg/ml fibrinogen, Sigma-Aldrich) in EBM-2 (Lonza) supplemented with 2% FBS and 50 μg/ml aprotinin (Sigma-Aldrich), and plated on top of a pre-coated fibrin layer (400 μl fibrinogen solution clotted with 1 U thrombin (Sigma-Aldrich) for 20 min at 37° C.). The second layer of fibrin was clotted for 1 hr at 37° C. NHDF cells (250,000 cells/well), in EBM-2 supplemented with 2% FBS and 25 ng/ml VEGF, with or without DAND5 (0, 15, 30 or 60 ng/ml), were then plated on top of the fibrin layers. Cultures were incubated at 37° C., 5% CO2.
To test whether DAND5 affects sprouting angiogenesis, human umbilical vein endothelial cells (HUVECs) were cultured in 3D fibrin gels and tube formation was induced with VEGF as previously described (2).

Wnt signaling = settings: previous study (5); cited from earlier work

B1: DAND5: human recombinant DAND5/COCO biologically active fragment produced in E. coli, predicted 18.2 kDa monomer, R&D systems 3047-CC-050 (protein)
chain: MRPEPQSPRPQSWAAANQTWALGPGALPPLVPASALGSWKAFLGLQKARQLGMGRLQRGQDEVAAVTLPLNPQEVIQGMCKAVPFVQVFSRPGCSAIRLRNHLCFGHCSSLYIPGSDPTPLVLCNSCMPARKRWAPVVLWCLTGSSASRRRVKISTMLIEGCHCSPKA
polarization of the Golgi apparatus towards the leading edge (HUVECs [1]; cells at the wound edge): did not significantly affect polarization of the Golgi apparatus towards the leading edge | wound closure (VEGF-induced cell migration) (HUVECs [1]; confluent HUVEC monolayer, DAND5 60 ng/ml, evaluated after 18 hours): significantly delayed wound closure compared to control treatment | proportion of cleaved caspase 3 (CC3)-positive cells (HUVECs [2]): did not show differences in the proportion of cleaved caspase 3 (CC3)-positive cells | growth of choroidal explants (mouse choroidal explants): inhibited the growth of P5 mouse choroidal explants exposed to serum and VEGF | mutual antagonism on vascular branches (Wnt-induced angiogenesis): mutually antagonist activities | VEGF-induced tube formation (HUVECs [3]): efficiently suppressed VEGF-induced tube formation in a dose-dependent manner | VEGF-induced tube formation (HUVECs [3]; listed as Dand5): inhibited tube formation in a dose dependent manner | vascular tube area (HUVECs [3]; quantification of endothelial tubes, increasing concentrations of DAND5): significant reduction in vascular tube area with increasing concentrations | Wnt signaling in photoreceptors (Wnt signaling): potent inhibitor of Wnt signaling in photoreceptors

— patent publication US20220265772A1, “USES OF DAN FAMILY BMP ANTAGONISTS FOR INHIBITING OCULAR NEOVASCULARIZATION AND TREATING OCULAR CONDITIONS” (9636137 Canada Inc., priority 2019, published 2022)
